Experimental data published in paper PMC3913127 (Nature immunology, 2012).

Target: …-loaded H-2D^d (mouse | )
Assay: SPR

B1: Ly49A EC (entire extracellular domain of Ly49A, residues 67-262) (receptor, mouse (C57BL/6), UniProt P20937 67-262, looked up)
chain: KIFQYDQQKNCEEFLNHHNNCSNMQSDINLKDEMLKNKSIECDLLESLNRDQNRLYNKTKTVLDSLQHTGRGDKVYWFCYGMKCYYFVMDRKTWSGCKQACQSSSLSLLKIDDEDELKFLQLVVPSDSCWVGLSYDNKKKDWAWIDNRPSKLALNTGKYNIRDGGCMLLSKTRLDNGNCDQVFICICGKRLDKFPH
modifications: biotin (biotinylated Ly49A EC, captured on streptavidin)
In the case of B1, the Kd is reported as 2050 ± 70 nM, the koff is reported as 0.00338 s⁻¹ and the kon is reported as 1650 M⁻¹ s⁻¹.
